From IntAct's records for PubMed 20571511

B1: Telomere length regulation protein ELG1 (Saccharomyces cerevisiae), Q12050 (parent)
chain: MKRHVSLSDILTGNKRKVRRQDALQITIDDENDTESGTFDARTAKHDDSSVIFLNHSVVKPIEAVSTNHKSAKEFLMTKRTKEKCDDDDDDLIVISDKSPKSETNCSKIALSQEHEDDISIISTSRIKSSLLNERASKIKNFLKHETTDTFKRLNSISKLNEIEPPLPLHQSIFPVGDKELSDRSVDIPLPFRTIPPLNHNFLPSDYESLKDKNSASCIPVRYQAPVLLGTNIKRNTTLTWPQLFKPVTLKQVLIEPKLKLRIKNWIETSFHTLEKPTLRNRLLNRINPNKQQGSGDELANFIVPDLEEDENLRPDFYRNGEANSSLSEFVPLMILHGNSIGKKTLIQTIMREIAGDDNSYQIYEVNSNMNRSKKDLLDILLDFTTTHYVKDSSKRKSDYGLVLFNDVDVLFKEHDRGYWAMISKLCEFSRRPLVLTCKDLSLVPSELIALASEQNSLFHTKKISTSTVYAFLTKYLKSLEIEVCDDWLRDVVKQNNADIRKCLMHLQFWCVDTEADLISSKNRLPVLTSTLGSSVKDISQLTDLLSINDVIGQATLNRSMVRQEIDSTTMTPEKVNTFQDQNLDDEMKLKFDYVIDYKLHLNDPNRQPLLPFELNIYQHIQEQLEARYSYVREANHRLDNEYLVNRFKKMTESTLNFLASRIPKYDHLQSARRTRNSKKISDILNQFKGIYNDETLNENAEIDLLSATTQQIKAEINPFVFEIAKSDANVKNENKQIFELHSENVSERRYKDLVYQLSQEGVLKNVWFNADPSIVVRKWEHLHSGFSKNK
B2: Proliferating cell nuclear antigen (Saccharomyces cerevisiae), P15873 (parent)
chain: MLEAKFEEASLFKRIIDGFKDCVQLVNFQCKEDGIIAQAVDDSRVLLVSLEIGVEAFQEYRCDHPVTLGMDLTSLSKILRCGNNTDTLTLIADNTPDSIILLFEDTKKDRIAEYSLKLMDIDADFLKIEELQYDSTLSLPSSEFSKIVRDLSQLSDSINIMITKETIKFVADGDIGSGSVIIKPFVDMEHPETSIKLEMDQPVDLTFGAKYLLDIIKGSSLSDRVGIRLSSEAPALFQFDLKSGFLQFFLAPKFNDEE
partner: B1 chain

Variants of: B1
Conditions: with pcna_yeast POL30, P15873

Variant | effect of a mutation on the interaction
V58A | decreasing interaction
S57A | decreasing interaction

Variants of: B1
Conditions: with pcna_yeast POL30, P15873
Remark: another data set of the same source

Variant | effect of a mutation on the interaction
I122A | disrupting interaction
I121A | disrupting interaction
I93K | disrupting interaction
I28A | disrupting interaction

Variants of: B1
Conditions: with smt3_yeast SMT3, Q12306
Sequence of smt3_yeast SMT3, Q12306 (Q12306 whole entry): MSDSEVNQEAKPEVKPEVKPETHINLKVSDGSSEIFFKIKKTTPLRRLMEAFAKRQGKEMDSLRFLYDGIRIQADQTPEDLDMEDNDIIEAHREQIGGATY

Variant | effect of a mutation on the interaction
I122A | decreasing interaction
I121A | decreasing interaction
I93K | decreasing interaction
I28A | decreasing interaction

Variants of: B1
Conditions: with smt3_yeast SMT3, Q12306
Remark: another data set of the same source

Variant | effect of a mutation on the interaction
I122A | disrupting interaction
I121A | disrupting interaction
I93K | disrupting interaction
I28A | disrupting interaction

Variants of: B1
Conditions: with pcna_yeast POL30, P15873
Remark: another data set of the same source

Variant | effect of a mutation on the interaction
V59A | decreasing interaction

Variants of: B2
Conditions: with elg1_yeast ELG1, Q12050

Variant | effect of a mutation on the interaction
MLEAKFEEASLFKRIIDGFKDCVQLVNFQCKEDGIIAQAVDDSRVLLVSLEIGVEAFQEYRCDHPVTLGMDLTSLSKILRCGNNTDTLTLIADNTPDSIILLFEDTKKDRIAEYSLKLMDIDADFLKIEELQYDSTLSLPSSEFSKIVRDLSQLSDSINIMITRETIKFVADGDIGSGSVIIKPFVDMEHPETSIKLEMDQPVDLTFGAKYLLDIIKGSSLSDRVGIRLSSEAPALFQFDLKSGFLQFFLAPKFNDEE [K164R] | decreasing interaction
